Experimental data published in patent publication US20240279281A1, “Peptide Inhibitors of Interleukin-23 Receptor” (Janssen Pharmaceutica NV, priority 2023, published 2024).
Values belong to the binder of their own block, whether it stands above or below them. Starred links: 1 amine or outer side, 2 acyl side, 3 side chain; linkers in the order of their positions; H or OH if unused. Positions of bridges follow the written chain, without caps; N, C: chain ends. Non-standard residues stand in square brackets, D forms with d. No end group written: not given here. X1 = 3‑(7-(3-acetamidophenyl)-1H-indol-3-yl)‑2‑aminopropanoic acid, CC(=O)Nc1cccc(-c2cccc3c(CC(N[*:1])C(=O)[*:2])c[nH]c23)c1; AEF(G) = 2-amino-3-(4-(2-guanidinoethoxy)phenyl)propanoic acid, N=C(N)NCCOc1ccc(C[C@H](N[*:1])C(=O)[*:2])cc1; X10 = 2‑amino‑3‑(4-(2-guanidinoethoxy)phenyl)propanoic acid, N=C(N)NCCOc1ccc(CC(N[*:1])C(=O)[*:2])cc1; Trp(7-(3-AcNH-Ph)) = CC(=O)Nc1cccc(-c2cccc3c(C[C@H](N)C(=O)O)c[nH]c23)c1; 2Nal(6-OH) = N[C@@H](Cc1ccc2cc(O)ccc2c1)C(=O)O; Trp(7-Me) = Cc1cccc2c(C[C@H](N)C(=O)O)c[nH]c12; dLys(Me3) = C[N+](C)(C)CCCC[C@@H](N)C(=O)O; AEF = NCCOc1ccc(C[C@H](N)C(=O)O)cc1; 3Pal = N[C@@H](Cc1cccnc1)C(=O)O; Pen = CC(C)(S)[C@H](N)C(=O)O; αMeC = C[C@](N)(CS)C(=O)O; lipid = not defined here; Thp = NC1(C(=O)O)CCOCC1; Abu = CC[C@H](N)C(=O)O; Sar = CNCC(=O)O

Molecular target: T1, interleukin-23 receptor (IL-23R), Q5VWK5
T1 chain: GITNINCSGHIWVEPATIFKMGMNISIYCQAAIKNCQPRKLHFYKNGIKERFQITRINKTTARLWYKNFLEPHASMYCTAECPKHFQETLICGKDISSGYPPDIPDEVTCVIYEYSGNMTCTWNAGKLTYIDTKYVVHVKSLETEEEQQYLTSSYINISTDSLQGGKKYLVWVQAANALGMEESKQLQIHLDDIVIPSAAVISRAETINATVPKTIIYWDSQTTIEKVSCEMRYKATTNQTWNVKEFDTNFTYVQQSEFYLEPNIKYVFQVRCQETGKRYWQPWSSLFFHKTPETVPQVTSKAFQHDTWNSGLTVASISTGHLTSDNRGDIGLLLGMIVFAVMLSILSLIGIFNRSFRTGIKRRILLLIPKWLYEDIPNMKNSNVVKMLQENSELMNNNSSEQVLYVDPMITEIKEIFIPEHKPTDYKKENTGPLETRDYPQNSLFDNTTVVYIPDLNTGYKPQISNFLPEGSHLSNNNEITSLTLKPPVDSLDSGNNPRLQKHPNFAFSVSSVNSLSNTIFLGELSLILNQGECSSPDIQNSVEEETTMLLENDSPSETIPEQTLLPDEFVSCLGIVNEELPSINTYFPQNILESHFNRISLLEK
Test: cell-based or functional assay

IL23R Reporter Assay IC50: > 100 nM
PBMC pSTAT3 IC50: < 1 nM
B2: SEQ ID NO: 275 (peptide)
peptide: [Pen]NT[Trp(7-Me)]K(Ac)[Pen][2‑amino‑3‑(4-(2-aminoethoxy)phenyl)propanoic acid][2‑amino‑3‑(6-hydroxynaphthalen-2-yl)propanoic acid][Thp]K(Ac)N[3Pal][Sar]K(lipid)
modifications: disulfide 1-6 (inferred); ends not checked; also: K14: lipidated lysine

IL23R Reporter Assay IC50: > 100 nM
PBMC pSTAT3 IC50: > 1 nM
B3: SEQ ID NO: 222 (peptide)
peptide: R[Pen]NT[Trp(7-Me)]K(Ac)[Pen][2‑amino‑3‑(4-(2-aminoethoxy)phenyl)propanoic acid][2‑amino‑3‑(6-hydroxynaphthalen-2-yl)propanoic acid][Thp]K(Ac)N[3Pal][Sar]K(lipid)
modifications: disulfide 2-7 (inferred); ends not checked; also: Lys15 lipidated, lipid not given here

IL23R Reporter Assay IC50: < 10 nM
B4: SEQ ID NO: 39 (peptide)
peptide: R[Pen]NT[X1]K(Ac)[Pen][5‑(4-(2-amino-2-carboxyethyl)phenoxy)‑N,N,N‑trimethylpentan‑1‑aminium][2‑amino‑3‑(6-hydroxynaphthalen-2-yl)propanoic acid][Thp]EN[3Pal][Sar]
modifications: not fully specified (bridges); ends and bridges not checked

IL23R Reporter Assay IC50: < 10 nM
PBMC pSTAT3 IC50: < 0.1 nM
B9: SEQ ID NO: 219 (peptide)
peptide: R[Pen]NT[Trp(7-Me)]K(Ac)[Pen][2‑amino‑3‑(4-(2-aminoethoxy)phenyl)propanoic acid][2‑amino‑3‑(6-hydroxynaphthalen-2-yl)propanoic acid][Thp]K(Ac)N[3Pal][Sar]
modifications: disulfide 2-7 (inferred); ends not checked

More lines, now with the values behind:

B1: SEQ ID NO: 32 (peptide)
peptide: R[Pen]NT[Trp(7-Me)]K(Ac)[Pen][AEF(G)][2Nal(6-OH)][Thp]EN[3Pal][Sar]
modifications: ends and bridges not checked
IL23R Reporter Assay IC50: < 10 nM
PBMC pSTAT3 IC50: < 0.01 nM

B5: SEQ ID NO: 3 (peptide)
peptide: [Pen]NT[Trp(7-Me)]K(Ac)[Pen][AEF][2Nal(6-OH)][Thp]EN[3Pal][Sar]
modifications: ends and bridges not checked
IL23R Reporter Assay IC50: < 10 nM

B6: SEQ ID NO: 29 (peptide)
peptide: R[Abu]NTWK(Ac)[αMeC][AEF][2Nal(6-OH)][Thp]K(Ac)N[3Pal][Sar]
modifications: ends and bridges not checked
IL23R Reporter Assay IC50: < 10 nM
PBMC pSTAT3 IC50: < 0.1 nM

B7: SEQ ID NO: 35 (peptide)
peptide: R[Pen]NT[X1]K(Ac)[Pen][X10][2‑amino‑3‑(6-hydroxynaphthalen-2-yl)propanoic acid][Thp]EN[3Pal][Sar]
modifications: ends and bridges not checked
IL23R Reporter Assay IC50: < 10 nM
PBMC pSTAT3 IC50: < 0.1 nM

B8: SEQ ID NO: 37 (peptide)
peptide: [dLys(Me3)][Pen]NT[X1]K(Ac)[Pen][5‑(4-(2-amino-2-carboxyethyl)phenoxy)‑N,N,N‑trimethylpentan‑1‑aminium][2‑amino‑3‑(6-hydroxynaphthalen-2-yl)propanoic acid][Thp]EN[3Pal][Sar]
modifications: ends and bridges not checked
IL23R Reporter Assay IC50: < 10 nM

B10: SEQ ID NO: 33 (peptide)
peptide: [dLys(Me3)][Pen]NT[Trp(7-(3-AcNH-Ph))]K(Ac)[Pen][AEF(G)][2Nal(6-OH)][Thp]EN[3Pal][Sar]
modifications: ends and bridges not checked
IL23R Reporter Assay IC50: < 10 nM
PBMC pSTAT3 IC50: < 0.01 nM
